Article PMC8899846

B1: wt mouse RtcB-Flag (pCMV3-mRTCB-Flag) [mouse] / PTP1B-C215S (trapping mutant; pcDNA3.1/Zeo-PTP1B [not stated] (parent)
chain 1: MSRNYNDELQFLDKINKNCWRIKKGFVPNMQVEGVFYVNDALEKLMFEELRNACRGGGVGGFLPAMKQIGNVAALPGIVHRSIGLPDVHSGYGFAIGNMAAFDMNDPEAVVSPGGVGFDINCGVRLLRTNLDESDVQPVKEQLAQAMFDHIPVGVGSKGVIPMNAKDLEEALEMGVDWSLREGYAWAEDKEHCEEYGRMLQADPNKVSPRAKKRGLPQLGTLGAGNHYAEIQVVDEIFNEYAAKKMGIDHKGQVCVMIHSGSRGLGHQVATDALVAMEKAMKRDKIIVNDRQLACARIASPEGQDYLKGMAAAGNYAWVNRSSMTFLTRQAFAKVFNTTPDDLDLHVIYDVSHNIAKVEQHVVDGKERTLLVHRKGSTRAFPPHHPLIAVDYQLTGQPVLIGGTMGTCSYVLTGTEQGMTETFGTTCHGAGRALSRAKSRRNLDFQDVLDKLADMGIAIRVASPKLVMEEAPESYKNVTDVVNTCHDAGISKKAIKLRPIAVIKG
chain 2: MEMEKEFEQIDKSGSWAAIYQDIRHEASDFPCRVAKLPKNKNRNRYRDVSPFDHSRIKLHQEDNDYINASLIKMEEAQRSYILTQGPLPNTCGHFWEMVWEQKSRGVVMLNRVMEKGSLKCAQYWPQKEEKEMIFEDTNLKLTLISEDIKSYYTVRQLELENLTTQETREILHFHYTTWPDFGVPESPASFLNFLFKVRESGSLSPEHGPVVVHSSAGIGRSGTFCLADTCLLLMDKRKDPSSVDIKKVLLEMRKFRMGLIQTADQLRFSYLAVIEGAKFIMGDSSVQDQWKELSHEDLEPPPEHIPPPPRPPKRILEPHNGKCREFFPNHQWVKEETQEDKDCPIKEEKGSPLNAAPYGIESMSQDTEVRSRVVGGSLRGAQAASPAKGEPSLPEKDEDHALSYWKPFLVNMCVATVLTAGAYLCYRFLFNSNT

Variants of: B1
Experiment: co-immunoprecipitation (IP: PTP1B, immunoblot RtcB), band quantification
Settings: with PTP1B-C215S (trapping mutant; pcDNA3.1/Zeo-PTP1B C215S); HEK cells, 1 μg RtcB-Flag plasmid and 1 μg PTP1B C215S plasmid; n = 3; parent: 100; read off a plot

percent of parent | Variant
37 % WT | chain 1 Y306F Y316F
100 % WT | chain 1 Y306F
38 % WT | chain 1 Y306F Y316F Y475F

Second part, the variant before the results:

Variant | percent of parent
chain 1 Y475F | 55 % WT
chain 1 Y316F | 75 % WT
